The target in assay [1] is T1, epithelial cell adhesion molecule (EpCAM) on EpCAM-expressing MCF-7 cells (human, UniProt P16422 24-314).
T1 construct: whole, on cells; also called cellular EpCAM; EpCAM+ MCF-7 cells
T1 sequence (looked up): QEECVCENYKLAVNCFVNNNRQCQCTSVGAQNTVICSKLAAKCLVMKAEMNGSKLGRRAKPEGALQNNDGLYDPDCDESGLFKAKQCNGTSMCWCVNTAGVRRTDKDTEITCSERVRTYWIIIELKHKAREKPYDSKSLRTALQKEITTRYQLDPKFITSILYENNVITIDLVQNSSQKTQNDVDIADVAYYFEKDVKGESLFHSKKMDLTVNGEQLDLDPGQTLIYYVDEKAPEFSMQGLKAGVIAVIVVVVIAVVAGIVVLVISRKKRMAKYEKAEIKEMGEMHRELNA
Briefly: flow cytometry titration of unmodified parent ligand on MCF-7 cells.

For assay [2], the target named is T1, epithelial cell adhesion molecule …. Briefly: flow cytometry titration of biotinylated ligand on EpCAM+ MCF-7 cells. (In general: In flow cytometry, cells or beads pass a laser one at a time.)
Assay [3] shares this target. Briefly: flow cytometry, multiple affinity titrations on EpCAM+ MCF-7 cells.
The target is the same in assay [4]. Briefly: flow cytometry titration of soluble clone on MCF-7 cells.
The target is the same in assay [5]. Briefly: flow cytometry titration on EpCAM+ MCF-7 cells.
The target is the same in assay [6]. Briefly: flow cytometry titration on EpCAM-expressing MCF-7 cells, anti-MYC detection; apparent (multivalent) Kd. The method, then: The apparent affinity and selectivity of the Fn3 and mSA/Fn3 CSANs was determined by flow cytometry, as previously described (Stern, et al., ACS Combinatorial Science 2017, 19 (5), 315-323). Briefly, EpCAM-expressing MCF-7 cells and EpCAM-negative U-87 MG cells were cultured to approximately 80% confluency, detached, and counted, as described above. Aliquots of 5×10⁴ cells were washed with PBSA (PBS with 0.1% w/v bovine serum albumin) and labeled with varying concentrations of Fn3 or mSA/Fn3 CSANs for ≥90 min at 4° C. Cells were then pelleted (500 g, 5 min, 4° C.) and resuspended in 50 μL anti-MYC (clone 9E10) Alexa Fluor 647 conjugate (Thermo Fisher Scientific, Cat: MA1-980-A647; 5 μg/mL in PBSA). After incubating at 4° C. for ≥30 min in the dark, cells were again pelleted and washed thrice with 1 mL cold PBSA before the fluorescence was analyzed on an LSR II flow cytometer (BD Biosciences).

B1: EpCAM-binding fibronectin clone C8 (parent ligand) (designed binder)
chain: SSDSPRNLEVTNATPNSLTISWDYPNSASYYRITYSETGGNSPSQEFTVPGNTYNATISGLKPGQDYIITVYAVTYRDNYSYSNLISINYRTEIDKPSQHHHHHH
notes: also called C08
For B1, in assay [1], the Kd is 11 nM.

B2: non-specifically biotinylated fibronectin clone C8 (designed binder)
chain: SSDSPRNLEVTNATPNSLTISWDYPNSASYYRITYSETGGNSPSQEFTVPGNTYNATISGLKPGQDYIITVYAVTYRDNYSYSNLISINYRTEIDKPSQHHHHHH
modifications: non-specific biotinylation of primary amines (N-terminus, lysines) with EZ-Link Sulfo-NHS-Biotin
notes: also called biotin-C08; biotin-C8
Molecule B2 returned a Kd in assay [2] of 5.7 nM.

B3: NODAGA-Fn-C5 (Fn_C5_G65C conjugated to maleimide-NODAGA) (designed binder)
chain: SSDSPRNLEVTNATPNSLTISWDNSNYASYYRITYGETGGNSPSQELTVPGSTYNATISGLKPCQDYIITVYAVTYRDNYSYSNLISINYRSEIDKPSQHHHHHH
modifications: maleimide-NODAGA on the engineered cysteine (G65C, position as in SEQ ID NO: 1)
notes: Single NODAGA per domain by MALDI-MS; also called Fn 3.4.5 G65C NODAGA conjugate
Regarding B3, in assay [3], the Kd came to 14 nM.

B4: EpCAM-binding fibronectin clone B22 (parent ligand) (designed binder)
chain: SSDSPRNLEVTNATPNSLTISWDDYTSASYYRITYGETGGNSPSQEFTVPGNTYNATVSGLRPGQDYIITVYAVTYRDNYSYSNPISINYRTEIDKPSQHHHHHH
B4: the Kd in assay [1] amounted to 1100 nM.

B5: non-specifically biotinylated fibronectin clone B22 (designed binder)
chain: SSDSPRNLEVTNATPNSLTISWDDYTSASYYRITYGETGGNSPSQEFTVPGNTYNATVSGLRPGQDYIITVYAVTYRDNYSYSNPISINYRTEIDKPSQHHHHHH
modifications: non-specific biotinylation of primary amines (N-terminus, lysines) with EZ-Link Sulfo-NHS-Biotin
notes: also called biotin-B22
Turning to B5, the Kd in assay [2] was found to be 1700 nM.

B6: EpCAM-binding fibronectin (Fn3) clone C5 (designed binder)
chain: SSDSPRNLEVTNATPNSLTISWDNSNYASYYRITYGETGGNSPSQELTVPGSTYNATISGLKPGQDYIITVYAVTYRDNYSYSNLISINYRSEIDKPSQHHHHHH
notes: Soluble domain made in E. coli; also called Fn 3.4.5; Fn C5
In assay [4], B6 registered a Kd of 17 nM.

B7: non-specifically biotinylated fibronectin clone C10 (designed binder)
chain: SSDSPRNLEVTNATPNSLTISWDDPDFASYYRITYGETGGSSPSQEFTVPGNTYSATISGLKPGRDHTITVYAVTYRDNYSYSNPISINYRTEIDKPSQHHHHHH
modifications: non-specific biotinylation of primary amines (N-terminus, lysines) with EZ-Link Sulfo-NHS-Biotin
notes: also called biotin-C10
B7 returned a Kd in assay [2] of 9.7 nM.

B8: EpCAM-binding fibronectin clone C10 (parent ligand) (designed binder)
chain: SSDSPRNLEVTNATPNSLTISWDDPDFASYYRITYGETGGSSPSQEFTVPGNTYSATISGLKPGRDHTITVYAVTYRDNYSYSNPISINYRTEIDKPSQHHHHHH
Take B8: the Kd in assay [1] was 25 nM.

B9: NODAGA-Fn-NT (Fn_NT_G65C non-targeted control conjugated to maleimide-NODAGA) (designed binder)
chain: SSDSPRNLEVTNATPNSLTISWDAPAVTVRYYRITYGETGGNSPSQEFTVPGSKSTATISGLKPCQDYTITVYAVTGRDGSPASSKPISINYRTEIDKPSQHHHHHH
modifications: maleimide-NODAGA on the engineered cysteine (G65C)
notes: Non-targeted scaffold with wild-type loops, G65C and RGD changed to RDG
Consider B9, for which, in assay [5], the binding result was “no binding”.

B10: Fn3 CSANs (DHFR^2-Fn3 fusion proteins with clone C5, oligomerized with bisMTX) (designed binder)
chain: MGEQKLISEEDLGGSGGGSGGGISLIAALAVDRVIGMENAMPWNLPADLAWFKRNTLNKPVIMGRHTWESIGRPLPGRKNIILSSQPGTDDRVTWVKSVDEAIAAAGDVPEIMVIGGGRVYEQFLPKAQKLYLTHIDAEVEGDTHFPDYEPDDWESVFSEFHDADAQNSHSYSFEILERRGGISLIAALAVDRVIGMENAMPWNLPADLAWFKRNTLNKPVIMGRHTWESIGRPLPGRKNIILSSQPGTDDRVTWVKSVDEAIAAAGDVPEIMVIGGGRVYEQFLPKAQKLYLTHIDAEVEGDTHFPDYEPDDWESVFSEFHDADAQNSHSYSFEILERRGELGGGGSGGGGSGGGGSASSSDSPRNLEVTNATPNSLTISWDNSNYASYYRITYGETGGNSPSQELTVPGSTYNATISGLKPGQDYIITVYAVTYRDNYSYSNLISINYRSEIDKPSQGSHHHHHH
notes: Multivalent nanoring; also called EpCAM-targeted Fn3 CSANs; monospecific Fn3 CSANs
For B10, the Kd in assay [6] was 21 nM.

B11: bispecific mSA/Fn3 CSANs (co-assembled mSA-DHFR^2 and DHFR^2-Fn3 subunits) (designed binder)
chain 1: MGEQKLISEEDLGGSGGGSGGGISLIAALAVDRVIGMENAMPWNLPADLAWFKRNTLNKPVIMGRHTWESIGRPLPGRKNIILSSQPGTDDRVTWVKSVDEAIAAAGDVPEIMVIGGGRVYEQFLPKAQKLYLTHIDAEVEGDTHFPDYEPDDWESVFSEFHDADAQNSHSYSFEILERRGGISLIAALAVDRVIGMENAMPWNLPADLAWFKRNTLNKPVIMGRHTWESIGRPLPGRKNIILSSQPGTDDRVTWVKSVDEAIAAAGDVPEIMVIGGGRVYEQFLPKAQKLYLTHIDAEVEGDTHFPDYEPDDWESVFSEFHDADAQNSHSYSFEILERRGELGGGGSGGGGSGGGGSASSSDSPRNLEVTNATPNSLTISWDNSNYASYYRITYGETGGNSPSQELTVPGSTYNATISGLKPGQDYIITVYAVTYRDNYSYSNLISINYRSEIDKPSQGSHHHHHH
chain 2: MAEAGITGTWYNQSGSTFTVTAGADGNLTGQYENRAQGTGCQNSPYTLTGRYNGTKLEWRVEWNNSTENCHSRTEWRGQYQGGAEARINTQWNLTYEGGSGPATEQGQDTFTKVKELGGSGGGSGGGSGGMISLIAALAVDRVIGMENAMPWNLPADLAWFKRNTLNKPVIMGRHTWESIGRPLPGRKNIILSSQPGTDDRVTWVKSVDEAIAAAGDVPEIMVIGGGRVYEQFLPKAQKLYLTHIDAEVEGDTHFPDYEPDDWESVFSEFHDADAQNSHSYSFEILERRGMISLIAALAVDRVIGMENAMPWNLPADLAWFKRNTLNKPVIMGRHTWESIGRPLPGRKNIILSSQPGTDDRVTWVKSVDEAIAAAGDVPEIMVIGGGRVYEQFLPKAQKLYLTHIDAEVEGDTHFPDYEPDDWESVFSEFHDADAQNSHSYSFEILERRGGSGGGSGGGSGGDYKDDDDK
notes: Stochastic mixture of the two subunits oligomerized with bisMTX; also called mSA/Fn3 bispecific CSANs
On to B11, for which the Kd in assay [6] stood at 24 nM.

B12: mixed, reduced valency CSANs of 1DD-FnC5-v4 and 1DD-FnNT-v4 subunits (designed binder)
chain 1: MGEQKLISEEDLGGSGGGSGGGISLIAALAVDRVIGMENAMPWNLPADLAWFKRNTLNKPVIMGRHTWESIGRPLPGRKNIILSSQPGTDDRVTWVKSVDEAIAAAGDVPEIMVIGGGRVYEQFLPKAQKLYLTHIDAEVEGDTHFPDYEPDDWESVFSEFHDADAQNSHSYSFEILERRGGISLIAALAVDRVIGMENAMPWNLPADLAWFKRNTLNKPVIMGRHTWESIGRPLPGRKNIILSSQPGTDDRVTWVKSVDEAIAAAGDVPEIMVIGGGRVYEQFLPKAQKLYLTHIDAEVEGDTHFPDYEPDDWESVFSEFHDADAQNSHSYSFEILERRGELGGSGGGGSGGGGSGGGGSGGGGSGGGGSGGGGSGGGGSGGGGSGGASSSDSPRNLEVTNATPNSLTISWDNSNYASYYRITYGETGGNSPSQELTVPGSTYNATISGLKPGQDYIITVYAVTYRDNYSYSNLISINYRSEIDKPSQGSHHHHHH
chain 2: MGEQKLISEEDLGGSGGGSGGGISLIAALAVDRVIGMENAMPWNLPADLAWFKRNTLNKPVIMGRHTWESIGRPLPGRKNIILSSQPGTDDRVTWVKSVDEAIAAAGDVPEIMVIGGGRVYEQFLPKAQKLYLTHIDAEVEGDTHFPDYEPDDWESVFSEFHDADAQNSHSYSFEILERRGGISLIAALAVDRVIGMENAMPWNLPADLAWFKRNTLNKPVIMGRHTWESIGRPLPGRKNIILSSQPGTDDRVTWVKSVDEAIAAAGDVPEIMVIGGGRVYEQFLPKAQKLYLTHIDAEVEGDTHFPDYEPDDWESVFSEFHDADAQNSHSYSFEILERRGELGGSGGGGSGGGGSGGGGSGGGGSGGGGSGGGGSGGGGSGGGGSGGASSSDSPRNLEVTNATPNSLTISWDAPAVTVRYYRITYGETGGNSPSQEFTVPGSKSTATISGLKPGQDYTITVYAVTGRDGSPASSKPISINYRTEIDKPSQGSHHHHHH
notes: Nanoring co-assembled with the chemical dimerizer bis-methotrexate
On to B12, for which, in assay [5], the binding result is recorded as “binds”.

B13: mixed, reduced valency CSANs of 1DD-FnB22-v4 and 1DD-FnNT-v4 subunits (designed binder)
chain 1: MGEQKLISEEDLGGSGGGSGGGISLIAALAVDRVIGMENAMPWNLPADLAWFKRNTLNKPVIMGRHTWESIGRPLPGRKNIILSSQPGTDDRVTWVKSVDEAIAAAGDVPEIMVIGGGRVYEQFLPKAQKLYLTHIDAEVEGDTHFPDYEPDDWESVFSEFHDADAQNSHSYSFEILERRGGISLIAALAVDRVIGMENAMPWNLPADLAWFKRNTLNKPVIMGRHTWESIGRPLPGRKNIILSSQPGTDDRVTWVKSVDEAIAAAGDVPEIMVIGGGRVYEQFLPKAQKLYLTHIDAEVEGDTHFPDYEPDDWESVFSEFHDADAQNSHSYSFEILERRGELGGSGGGGSGGGGSGGGGSGGGGSGGGGSGGGGSGGGGSGGGGSGGASSSDSPRNLEVTNATPNSLTISWDDYTSASYYRITYGETGGNSPSQEFTVPGNTYNATVSGLRPGQDYIITVYAVTYRDNYSYSNPISINYRTEIDKPSQGSHHHHHH
chain 2: MGEQKLISEEDLGGSGGGSGGGISLIAALAVDRVIGMENAMPWNLPADLAWFKRNTLNKPVIMGRHTWESIGRPLPGRKNIILSSQPGTDDRVTWVKSVDEAIAAAGDVPEIMVIGGGRVYEQFLPKAQKLYLTHIDAEVEGDTHFPDYEPDDWESVFSEFHDADAQNSHSYSFEILERRGGISLIAALAVDRVIGMENAMPWNLPADLAWFKRNTLNKPVIMGRHTWESIGRPLPGRKNIILSSQPGTDDRVTWVKSVDEAIAAAGDVPEIMVIGGGRVYEQFLPKAQKLYLTHIDAEVEGDTHFPDYEPDDWESVFSEFHDADAQNSHSYSFEILERRGELGGSGGGGSGGGGSGGGGSGGGGSGGGGSGGGGSGGGGSGGGGSGGASSSDSPRNLEVTNATPNSLTISWDAPAVTVRYYRITYGETGGNSPSQEFTVPGSKSTATISGLKPGQDYTITVYAVTGRDGSPASSKPISINYRTEIDKPSQGSHHHHHH
notes: as for B12
As to B13, in assay [5], the binding result is “binds”.

Source of the values: US20180251524A1 (REGENTS OF THE UNIVERSITY OF MINNESOTA, published 2018).
